Biological target: T1, SET domain of human SETD2 (residue 1435–1711, encompassing the AWS, SET, and post-SET regions) (human, UniProt Q9BYW2 1435-1711)
T1 construct: SETD2, human, residues 1435–1711 (AWS, SET and post-SET regions), in the pET28-MHL vector; The His-tag was not removed for crystallization; A longer construct (1347–1711, 6xHis, Talon beads) was used for the histone methyltransferase assays; also called SETD2 SET domain; recombinant SET domain of SETD2; not shown: His6, N-terminal, kept
T1 sequence (looked up): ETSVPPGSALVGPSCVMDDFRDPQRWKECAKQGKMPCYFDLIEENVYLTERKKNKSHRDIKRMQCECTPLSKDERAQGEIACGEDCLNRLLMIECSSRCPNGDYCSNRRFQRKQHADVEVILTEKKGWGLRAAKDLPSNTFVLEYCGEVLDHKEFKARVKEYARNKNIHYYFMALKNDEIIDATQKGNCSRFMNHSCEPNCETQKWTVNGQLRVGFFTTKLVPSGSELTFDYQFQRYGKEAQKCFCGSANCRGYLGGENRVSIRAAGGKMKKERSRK
Experiment: crystal structure; SETD2 (10 mg/ml) incubated with SAM and H3K36M peptide at a molar ratio of 1:10:10; sitting drop, 20 °C, 0.1 M KSCN, 24% PEG 2000 MME; two ternary complexes, with SAM (2.42 Å) and with SAH (2.4 Å)
Details: both partners purified

binding result: binds
B1: H3K36M peptide (29-APATGGVMKPHRYRP-43) (peptide)
peptide: APATGGVMKPHRYRP
notes: histone H3 tail, residues 29–43, with K36M; also called H3K36M (29–43) peptide; source: synthetic peptide (Eurogentec for the crystals; Anaspec for the thermal shift assay)
